According to patent US20150307576A1, “FGF-10 COMPLEXES” (PERMEON BIOLOGICS, INC., priority 2012, published 2015):
Where two headings read alike, the source gives them in different places.

Key:
[1] = test system: SKOV-3 ovarian cancer cells; assay: SKOV-3 cell viability, MTS assay; type: cell-based, human; settings: 100 uM, 4-hour treatment, 3 days of growth
Hela cells = assay: Cell penetrating activity, anti-myc flow cytometry; type: cell-based; settings: 1 uM, 20 minutes
Description: On the day prior to the assay, 10^6 Hela cells were plated in each well of a 6-well plate and incubated in the 37° C. CO2 incubator overnight. The cells were washed once with PBS and then were replenished with 1 mL of serum-free DEMEM (A) or media containing 1 uM of the FGF10 domain construct FGF10-myc (B, C, and D) and were incubated for 20 minutes in the 37° C. CO2 incubator. The cells were then washed three times with ice-cold PBS. For (C) and (D), cells were treated with 0.25% trypsin/EDTA and washed three times with PBS. The cells in (D) were fixed for 10 minutes with 1 mL 4% formaldehyde and permealized for 5 minutes with 0.2% saponin. Then 10 uL of 0.1 mg/mL FITC labeled chicken polyclonal anti-myc tag antibody (Abcam #1394) was added to all the cells and incubated at 4° C. in the dark for 2 hours. The cells were washed three times with ice cold PBS. Cells in (A) and (B) were detached with 1 mL 10 mM EDTA. Cells were analyzed using a BD Accuri™ C6 flow cytometer.

[2] = Stability following multiple freeze/thaw cycles (protein concentration, analytical SEC); type: physicochemical; settings: two freeze/thaw cycles
Description: The stability of this cell penetrating domain of FGF10 was evaluated following multiple freeze/thaw cycles. To do this, protein concentration measurements and analytical size exclusion chromatography were carried out comparing protein which had undergone zero, one, or two freeze/thaw cycles. […] The study indicated about 75% stability of this protein after two freeze/thaw cycles.
Purified protein was subjected to the indicated number of freeze/thaw cycles (each freeze/thaw cycle consisted of snap-freezing the protein in liquid nitrogen, placing it at −80° C. for a minimum of two hours, and then thawing it on ice) and analyzed by size exclusion chromatography. After each thaw, the protein was subjected to 20,000×g centrifugation to remove any precipitation. The protein concentration of each sample was measured by A280, considering the extinction coefficient (24540) and molecular weight (19.57 kDa). In each case 40 μL of the protein was applied to a Superdex 75 10/300 GL column (GE Healthcare). The column running buffer was the same as the protein storage buffer (20 mM Hepes, pH 7.5, 0.5 M NaCl).

[3] = mouse, in vivo
[4] = Cellular distribution, microautoradiography (MARG); type: in vivo, mice
Description: To obtain specific cell-type uptake information in select organs, microautoradiography analysis was performed on selected organs collected at various time points. For microautoradiography analysis (MARG), animals were anesthetized and blood collected, as described above. Tissue samples are trimmed to be approximately 0.5 cm^2, placed into cryosectioning embedding media on a cryosectioning sample holder, and frozen in isopentane that is cooled with liquid nitrogen. Frozen samples were stored in liquid nitrogen until analysis by MARG. For analysis, tissues were cryosectioned at 5 μm under darkroom conditions, and collected onto glass slides that are pre-coated with photographic emulsion (Kodak NTB photographic emulsion). Slides were placed in sealed light-safe slide boxes and allowed to expose the photographic emulsion for 7 days before being developed, fixed and stained with hematoxylin and eosin. All slides were examined for cellular localization using light microscopy.

[5] = mouse, in vivo; remark: listed apart in the source
[6] = test system: HepG2, Hela and SW626 cells; assay: Internalization of p16 fusion proteins, flow cytometry; type: cell-based; settings: 2 uM, overnight
Description: On the day prior to the assay, HepG2 (hepatoma), Hela cells, and 10^6 SW626 cells (ovarian) were plated in each well of a 6-well plate and incubated in the 37° C. CO2 incubator. The cells were washed once with PBS and then were replenished with 2 mL of growth media containing 2 uM of p16, +36GFP-p16 or FGF10-p16 proteins and were incubated overnight in the 37° C. CO2 incubator. The cells were then washed once with PBS and detached with 0.25% trypsin/EDTA. The cells were fixed for 10 minutes with 1 mL 4% formaldehyde and permeabilized for 5 minutes with 0.5 mL 0.4% saponin. Then 2.5 uL of 1 mg/mL FITC labeled chicken polyclonal anti-myc tag antibody (Abcam #1394) was added to all the cells and incubated at 4° C. in the dark for 2 hours, except for cells treated with +36GFP-p16 (GFP itself was used for detection). The cells were washed twice with ice cold PBS and were analyzed using a BD Accuri™ C6 flow cytometer.

FGFR2b receptor = FGFR2b receptor (Homo sapiens, UniProt P21802); settings: relative to unmodified FGF10; cited from earlier work
mitogenic activity [7] = assay: Mitogenic activity of FGF10 variants; settings: tetramutant vs native FGF10
mitogenic activity [8] = settings: relative to wild-type; cited from earlier work
[9] = trypsin, fixed and permeabilized

FGFR2b receptor, sequence (P21802 22-822 isoform P21802-3 limits assumed): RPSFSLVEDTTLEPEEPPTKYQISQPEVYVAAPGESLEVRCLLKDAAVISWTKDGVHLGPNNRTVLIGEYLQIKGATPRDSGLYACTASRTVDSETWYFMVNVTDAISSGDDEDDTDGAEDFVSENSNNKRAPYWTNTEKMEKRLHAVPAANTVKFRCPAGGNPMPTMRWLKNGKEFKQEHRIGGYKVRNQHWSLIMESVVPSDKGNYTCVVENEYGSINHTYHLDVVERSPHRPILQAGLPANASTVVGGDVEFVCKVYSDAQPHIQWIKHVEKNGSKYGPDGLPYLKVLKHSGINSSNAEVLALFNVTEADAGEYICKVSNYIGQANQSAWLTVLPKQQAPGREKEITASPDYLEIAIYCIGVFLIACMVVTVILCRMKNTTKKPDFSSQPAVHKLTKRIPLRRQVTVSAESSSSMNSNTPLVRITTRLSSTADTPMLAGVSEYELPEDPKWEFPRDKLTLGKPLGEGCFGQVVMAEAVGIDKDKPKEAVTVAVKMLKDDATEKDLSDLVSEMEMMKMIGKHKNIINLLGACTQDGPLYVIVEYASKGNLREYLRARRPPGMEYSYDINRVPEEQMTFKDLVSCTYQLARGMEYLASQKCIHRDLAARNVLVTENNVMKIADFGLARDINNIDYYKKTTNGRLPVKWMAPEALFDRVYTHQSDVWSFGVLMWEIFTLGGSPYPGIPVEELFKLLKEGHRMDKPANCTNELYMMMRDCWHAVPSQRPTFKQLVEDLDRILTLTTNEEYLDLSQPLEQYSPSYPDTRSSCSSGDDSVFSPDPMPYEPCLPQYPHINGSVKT

CC(=O)c1c(C)c2cnc(Nc3ccc(N4CCNCC4)cn3)nc2n(C2CCCC2)c1=O [PD-0332991]
inhibition of cell proliferation [1]: complete inhibition of cell proliferation

FGF10
cells with protein present on the cell membrane (Hela cells; no trypsin): 98.8% | cells stained positive for FGF10 after trypsin treatment (internalized) (Hela cells; [9]): almost all the cells stained positive | stability after freeze/thaw cycles ([2]; listed as His6-FGF10-myc): 75% | stability after freeze/thaw cycles ([2]; listed as Hisx6-FGF10-Myc): about 75% | levels of injected protein in liver, spleen, kidney, urinary bladder, adrenal gland, thyroid gland [3]: high levels | cellular distribution in kidney ([4]; kidney MARG): uniformly distributed throughout the kidney | cellular distribution in liver ([4]; liver MARG): uniformly distributed throughout the liver tissue including in hepatocytes | partitioning between plasma compartment and blood cell compartment [5]: favor the plasma compartment

B1: p16: human p16 tumor suppressor protein alone, SEQ ID NO: 5 (protein, listed as Homo sapiens)
chain: MEPAAGSSMEPSADWLATAAARGRVEEVRALLEAGALPNAPNSYGRRPIQVMMMGSARVAELLLLHGAEPNCADPATLTRPVHDAAREGFLDTLVVLHRAGARLDVRDAWGRLPVDLAEELGHRDVARYLRAAAGGTRGSNHARIDAAEGPSDIPD
cell penetration [6]: does not

B2: FGF10-p16: fusion protein of FGF10 domain and full length human p16, SEQ ID NO: 6 (protein)
chain: MEQKLISEEDLGSGRHVRSYNHLQGDVRWRKLFSFTKYFLKIEKNGKVSGTKKENCPYSILEITSVEIGVVAVKAINSNYYLAMNKKGKLYGSKEFNNDCKLKERIEENGYNTYASFNWQHNGRQMYVALNGKGAPRRGQKTRRKNTSAHFLPMVVHSGHGGGGSGGGGSMEPAAGSSMEPSADWLATAAARGRVEEVRALLEAGALPNAPNSYGRRPIQVMMMGSARVAELLLLHGAEPNCADPATLTRPVHDAAREGFLDTLVVLHRAGARLDVRDAWGRLPVDLAEELGHRDVARYLRAAAGGTRGSNHARIDAAEGPSDIPDGHGHHHHHH
treated cells stained positive [6, 9]: ~30%

B3: FGF10 E158K/K195A: FGF10 mutant with two substitutions E158K/K195A; domain variant in SEQ ID NO: 8 (protein)
chain: GRHVRSYNHLQGDVRWRKLFSFTKYFLKIEKNGKVSGTKKENCPYSILEITSVEIGVVAVKAINSNYYLAMNKKGKLYGSKEFNNDCKLKERIEKNGYNTYASFNWQHNGRQMYVALNGKGAPRRGQKTRRANTSAHFLPMVVHS
decrease in binding to the FGFR2b receptor (FGFR2b receptor): approximately 4 fold

B4: tetramutant: variant of FGF10 domain with four substitutions at positions 78, 114, 158, 195, SEQ ID NO: 10 (protein)
chain: GRHVRSYNHLQGDVAWRKLFSFTKYFLKIEKNGKVSGTKKENCPYSILEIRSVEIGVVAVKAINSNYYLAMNKKGKLYGSKEFNNDCKLKERIEANGYNTYASFNWQHNGRQMYVALNGKGAPRRGQKTRRANTSAHFLPMVVHS
mitogenic activity (mitogenic activity [7]): reduced mitogenic activity

B5: FGF10 R78A: FGF10 mutant with one substitution R78A; domain variant in SEQ ID NO: 9 (protein)
chain: GRHVRSYNHLQGDVAWRKLFSFTKYFLKIEKNGKVSGTKKENCPYSILEITSVEIGVVAVKAINSNYYLAMNKKGKLYGSKEFNNDCKLKERIEENGYNTYASFNWQHNGRQMYVALNGKGAPRRGQKTRRKNTSAHFLPMVVHS
decrease in binding to the FGFR2b receptor (FGFR2b receptor): approximately 4 fold | mitogenic activity (mitogenic activity [8]): significant decrease
